Measured values: patent US20110243955A1 (FUSION ANTIBODIES, published 2011)

Key:
[1] = target: T1, recombinant human Cat S (Calbiochem) (human, UniProt P25774 115-331, limits assumed); assay: fluorimetric enzyme assay with Cbz-Val-Val-Arg-AMC; progress curves of a slow-binding inhibitor fitted by non-linear regression (Morrison and Walsh, GraFit)
T1 construct: Bought enzyme used in the fluorimetric activity assays; also called cathepsin S
Procedure: FIG. 12. Quantification of inhibitory activity of Cat S MAb1 (Mab 1E11). Rates from the progress curves of (Mab 1E11) [FIG. 11], which were indicative of a slow binding inhibitor, were fitted by non-linear regression using GraFit software according to the method of Morrison and Walsh, 1988.
The inhibitory effect of the monoclonal antibodies were determined by a flurometric assay, using a Cat S synthetic substrate Z-Val-Val-Arg-AMC (Bachem) and recombinant human Cat S (Calbiochem). The recombinant Cat S enzyme was activated at 37° C. in sodium acetate buffer (100 mM sodium acetate, 1 mM EDTA, 0.1% Brij90, pH 5.5), and 2 mM dithiothreitol (DTT) for 30 mins prior to assay. Assays were carried out using 190 μl of sodium acetate/DTT buffer (90:1), 1 μl of activated Cat S, 12.5 μl of 10 mM Cbz-Val-Val-Arg-AMC substrate and 50 μl of non-purified monoclonal antibody supernatant. Fluorescence was measured at 375 nm excitation and 460 nm emission wavelengths every 5 mins for 4 hrs (FIG. 8). […]
The purified monoclonal antibodies were analysed by flurometric assay for quantification of their ability to inhibit the activity of Cat S. The principles of this assay are the same as that previously used. Fluorescence was measured at 375 nm excitation and 460 nm emission wavelengths every minute for 1 hr. […]

[2] = target: T2, human cathepsin L (recombinant) (human, UniProt P07711 114-333, limits assumed); assay: western blot of recombinant cathepsins
T2 construct: Called 'purified CatL' in the activity assay; also called CatL; Cat L
T2 sequence (P07711 114-333 limits assumed): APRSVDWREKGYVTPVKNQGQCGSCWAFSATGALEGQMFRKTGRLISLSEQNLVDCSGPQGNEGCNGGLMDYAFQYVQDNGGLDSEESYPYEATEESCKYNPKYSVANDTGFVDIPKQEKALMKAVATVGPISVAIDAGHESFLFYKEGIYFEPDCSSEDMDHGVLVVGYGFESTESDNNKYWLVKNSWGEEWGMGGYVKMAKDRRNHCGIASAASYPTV
Procedure: (§1) FIG. 15 MAb1 specifically binds Cat S on western blot. The antibody was used to probe against human cathepsin B, L, S and K (100 ng each).
(§2) Western blots were performed as described before to show specificity of the antibody binding to Cat S and not to CatB, L or K. Briefly, 100 ng of recombinant Cat S, K, L and B were loaded onto a SDS-PAGE gel, then transferred onto Hybond-C Extra nitrocellulose membrane (Amersham. Biosciences). The membrane was blocked by incubation in PBS/5% marvel for 1 hr at room temperature, after which it was rinsed briefly in PBS. The monoclonal antibodies were used at a 1:500 dilution in PBS and incubated on the membrane overnight at 4° C. while gently rocking. The blot was then rinsed three times with PBS/1% marvel and 0.1% Tween-20 and then incubated with the goat anti-mouse HRP conjugated secondary antibody at a 1:3000 dilution for 1 hr at room temperature while shaking. The blot was then rinsed three times with the PBS/1% marvel and 0.1% Tween-20 solution, followed by a short rinse in PBS. The blot was incubated with ECL plus substrate (Amersham Biosciences) for 5 mins at room temperature before development using Kodak photographic film under safe light conditions (FIG. 15).

[3] = target: human cathepsin B (recombinant) (human, UniProt P07858 80-333); assay: western blot of recombinant cathepsins
Procedure: as §1, §2

[4] = target: T3, human cathepsin K (recombinant) (human, UniProt P43235 115-329, limits assumed); assay: western blot of recombinant cathepsins
T3 construct: Called 'purified CatK' in the activity assay; also called CatK; Cat K
T3 sequence (looked up): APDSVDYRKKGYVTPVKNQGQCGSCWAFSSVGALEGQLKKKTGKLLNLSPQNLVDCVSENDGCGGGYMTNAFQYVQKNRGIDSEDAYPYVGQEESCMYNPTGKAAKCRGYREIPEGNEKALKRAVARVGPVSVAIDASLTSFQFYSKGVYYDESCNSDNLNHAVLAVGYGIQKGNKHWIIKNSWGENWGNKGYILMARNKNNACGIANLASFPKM
Procedure: as §1, §2

T1 sequence (P25774 115-331 limits assumed): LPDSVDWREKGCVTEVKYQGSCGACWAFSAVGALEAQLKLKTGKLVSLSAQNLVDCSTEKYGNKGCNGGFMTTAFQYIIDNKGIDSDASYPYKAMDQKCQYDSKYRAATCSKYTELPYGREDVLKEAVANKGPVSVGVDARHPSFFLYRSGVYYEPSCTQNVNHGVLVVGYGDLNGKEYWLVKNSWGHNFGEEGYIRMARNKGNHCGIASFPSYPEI

B1: Cat S inhibitory monoclonal antibody Mab 1E11 (antibody, V domains shown)
VH: VQLQESGGVLVKPGGSLKLSCAASGFAFSSYDMSWVRQTPEKRLEWVAYITTGGVNTYYPDTVKGRFTISRDNAKNTLYLQMSSLKSEDTAMYYCARHSYFDYWGQGTTVTVSS
VL: DVLMTQTPLSLPVSLGDQASISCRSSQSLVHSNGNTYLHWYLQKPGQSPKLLIYKVSNRFSGVPDRFSGSGSGTDFTLKISRVEAEDLGVYFCSQTTHVPPTFGSGTKLEIKR
notes: Whole mouse monoclonal antibody from a hybridoma (BALB/C mice), purified from supernatant; also called Cat S MAb1
[1]
  Ki: 533 nM
[2]
  binding result: no binding
[3]
  binding result: no binding
[4]
  binding result: no binding
